This note sets out measurements from PMC2959125 (Biochemistry, 2010).

Where a chain is given by its changes, count along the chain named. Names may count otherwise.

B1: N-acetyl-L-ornithine transcarbamylase from Xanthomonas campestris, K302A mutant (enzyme)
chain: MSLKHFLNTQDWSRAELDALLTQAALFKRNKLGSELKGKSIALVFFNPSMRTRTSFELGAFQLGGHAVVLQPGKDAWPIEFNLGTVMDGDTEEHIAEVARVLGRYVDLIGVRAFPKFVDWSKDREDQVLKSFAKYSPVPVINMETITHPCQELAHALALQEHFGTPDLRGKKYVLTWTYHPKPLNTAVANSALTIATRMGMDVTLLCPTPDYILDERYMDWAAQNVAESGGSLQVSHDIDSAYAGADVVYAKSWGALPFFGNWEPEKPIRDQYQHFIVDERKMALTNNGVFSHCLPLRRNVAATDAVMDSPNCIAIDEAENRLHVQKAIMAALVGQSRP
B2: N-acetyl-L-ornithine transcarbamylase from Xanthomonas campestris, K302R mutant (enzyme)
chain: B1 chain with A302R
B3: N-acetyl-L-ornithine transcarbamylase from Xanthomonas campestris, K302E mutant (enzyme)
chain: B1 chain with A302E

The data set concerns the molecule itself. Description: crystal structure.
Regarding B1, the binding result is “binds”.
With B2 the entry was “binds”; with B3, “binds”.
